Target: FcγRIII (CD16) (human) (UniProt P08637)
Assay: cell-based or functional assay

FcγRIII (CD16) (human), sequence (P08637 17-254): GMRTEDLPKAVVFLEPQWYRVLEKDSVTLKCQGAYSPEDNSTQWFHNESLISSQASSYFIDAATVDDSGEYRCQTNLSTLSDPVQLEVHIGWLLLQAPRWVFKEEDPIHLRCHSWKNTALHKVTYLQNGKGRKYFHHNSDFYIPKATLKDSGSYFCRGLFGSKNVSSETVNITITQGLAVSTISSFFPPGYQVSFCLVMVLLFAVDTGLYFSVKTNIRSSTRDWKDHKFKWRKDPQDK

Substance | IFN-γ secretion from PBMC, aggregated IgG (40 µg/ml) + IL-2 [ng/mL] | TNF-α secretion from PBMC, aggregated IgG (40 µg/ml) + IL-2 [ng/mL] | fold induction of PBMC proliferation over IL-2, 125 µg/mL of AIG [fold] | proliferative response of PBMC, 125 µg/mL of AIG and IL-2 [CPM] | IFN-γ secretion from PBMC, immobilized 3G8 (10 µg/ml) + IL-2 [ng/mL] | TNF-α secretion from PBMC, immobilized 3G8 (10 µg/ml) + IL-2 [ng/mL] | proliferative response of PBMC ([methyl-3H] thymidine), IL-2 and immobilized anti-CD16 mAb [CPM] | proliferative response of PBMC ([methyl-3H] thymidine), immobilized anti-CD16 mAb alone [CPM]
heat aggregated IgG | 13 | 2.46 | 16 | 17400 |  |  |  | 
anti-CD16 mAb 3G8 (Caltag Laboratories) (antibody) |  |  |  |  | 9.85 | 3.32 | 15500 | 592

— patent US20110195067A1
